The text below walks through data of article doi:10.1101/2022.04.21.489128.

This assay has as its target wild-type FliM (Vibrio alginolyticus flagellar rotor C-ring protein) with an N-terminal His-tag (V. alginolyticus). The assay can be described thus: SEC. In general terms: Size exclusion chromatography separates by hydrodynamic size, large species first.

“wild-type FliM (Vibrio alginolyticus flagellar rotor C-ring protein) with an N-terminal His-tag (natural protein)” registered a stoichiometry N of 2.

For orientation: stoichiometry N means a count of units in the complex or per binding partner.
